The text below walks through data of US20250388669A1 (published 2025).

The target of one experiment is T1, PD-1 (human, UniProt Q15116 25-167, limits assumed).
T1 construct: The reporter assay used Jurkat T cells expressing human PD-1
As to the kind of experiment: FCM or ELISA. On the technique in general: ELISA stands for enzyme-linked immunosorbent assay.

The next experiment deals with T2, CD137 (human, UniProt Q07011 24-186).
T2 construct: Reporter assays used GS-H2-huCD137 cells expressing human CD137; also called 4-1BB/CD137; huCD137
The experiment is described as follows: CD137 binding by FCM or ELISA.

T1 sequence (Q15116 25-167 limits assumed): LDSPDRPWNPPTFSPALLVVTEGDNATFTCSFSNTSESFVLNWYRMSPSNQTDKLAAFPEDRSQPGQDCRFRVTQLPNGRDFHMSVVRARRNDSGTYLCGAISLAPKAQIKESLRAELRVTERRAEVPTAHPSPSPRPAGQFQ

B1: Ly2280 (bispecific antibody)
chain 1: not shown
chain 2: QVTLKESGPALVKPTQTLTLTCTFSGFSLSTSGTCVSWIRQPPGKALEWLATICWEDSKGYNPSLKSRLTISKDTSKNQAVLTMTNMDPVDTATYYCARREDSGYFWFPYWGQGTLVTVSSASTKGPSVFPLAPSSKSTSGGTAALGCLVKDYFPEPVTVSWNSGALTSGVHTFPAVLQSSGLYSLSSVVTVPSSSLGTQTYICNVNHKPSNTKVDKKVEPKSCGGGGSGGGGSGGGGSGGGGSDIQMTQSPSSVSASVGDRVTITCRASQGIYSWLAWYQQKPGKAPNLLIYTASTLQSGVPSRFSGSGSGTDFTLTISSLQPEDFATYYCQQANIFPLTFGGGTKVEIKGGGGSDKTHTCPPCPAPEAAGPSVFLFPPKPKDTLMISRTPEVTCVVVDVSHEDPEVKFNWYVDGVEVHNAKTKPREEQYNSTYRVVSVLTVLHQDWLNGKEYKCKVSNKALPAPIEKTISKAKGQPREPQVYTLPPSREEMTKNQVSLSCAVKGFYPSDIAVEWESNGQPENNYKTTPPVLDSDGSFFLVSKLTVDKSRWQQGNVFSCSVMHEALHNRFTQKSLSLSPG
light: NIQMTQSPSSLSASVGDRVTITCKAGQNVNNYLAWYQQKPGKAPKVLIFNANSLQTGVPSRFSGSGSGTDFTLTISSLQPEDFATYYCQQYNSWPTFGGGTKVEIKRTVAAPSVFIFPPSDEQLKSGTASVVCLLNNFYPREAKVQWKVDNALQSGNSQESVTEQDSKDSTYSLSSTLTLSKADYEKHKVYACEVTHQGLSSPVTKSFNRGEC
notes: PD-1/CD40: two PD-1 Fabs, central CD40 Fv (TM383)
As to B1, in the experiment with PD-1, the binding result is given as “binds”.

B2: Ly2415 (bispecific antibody, human IgG1, kappa)
chain 1: QVTLKESGPALVKPTQTLTLTCTFSGFSLSTSGTCVSWIRQPPGKALEWLATICWEDSKGYNPSLKSRLTISKDTSKNQAVLTMTNMDPVDTATYYCARREDSGYFWFPYWGQGTLVTVSSASTKGPSVFPLAPSSKSTSGGTAALGCLVKDYFPEPVTVSWNSGALTSGVHTFPAVLQSSGLYSLSSVVTVPSSSLGTQTYICNVNHKPSNTKVDKKVEPKSCDKTHTCPPCPAPEAAGPSVFLFPPKPKDTLMISRTPEVTCVVVDVSHEDPEVKFNWYVDGVEVHNAKTKPREEQYNSTYRVVSVLTVLHQDWLNGKEYKCKVSNKALPAPIEKTISKAKGQPREPQVYTLPPSREEMTKNQVSLWCLVKGFYPSDIAVEWESNGQPENNYKTTPPVLDSDGSFFLYSKLTVDKSRWQQGNVFSCSVMHEALHNHYTQKSLSLSPGGGGGSGGGGSGGGGSGGGGSEVQLVESGGGLVQPGGSLRLSCAASGFTFTNYGLHWVRQAPGKGLEWVSSISPSGGVTYYRDSVKGRFTISRDNSKNTLYLQMNSLRAEDTAVYYCAKPFLGWGGANWIAHWGQGTLVTVSS
chain 2: QVTLKESGPALVKPTQTLTLTCTFSGFSLSTSGTCVSWIRQPPGKALEWLATICWEDSKGYNPSLKSRLTISKDTSKNQAVLTMTNMDPVDTATYYCARREDSGYFWFPYWGQGTLVTVSSASTKGPSVFPLAPSSKSTSGGTAALGCLVKDYFPEPVTVSWNSGALTSGVHTFPAVLQSSGLYSLSSVVTVPSSSLGTQTYICNVNHKPSNTKVDKKVEPKSCDKTHTCPPCPAPEAAGPSVFLFPPKPKDTLMISRTPEVTCVVVDVSHEDPEVKFNWYVDGVEVHNAKTKPREEQYNSTYRVVSVLTVLHQDWLNGKEYKCKVSNKALPAPIEKTISKAKGQPREPQVYTLPPSREEMTKNQVSLSCAVKGFYPSDIAVEWESNGQPENNYKTTPPVLDSDGSFFLVSKLTVDKSRWQQGNVFSCSVMHEALHNRFTQKSLSLSPGGGGGSGGGGSGGGGSGGGGSDIQMTQSPSSLSASVGDRVTITCLASEDISNDLAWYQQKPGKAPKLLIYFVDRLLDGVPSRFSGSGSGTDFTLTISSLQPEDFATYYCQQSYKYPPTFGQGTKLEIK
light: B1 light
notes: PD-1/CD40: two PD-1 Fabs, terminal CD40 Fv (TM559)
In the case of B2, the binding result with PD-1 was “binds”.

B3: Ly2405 (bispecific antibody, human IgG1, kappa)
chain 1: not shown
chain 2: QVTLKESGPALVKPTQTLTLTCTFSGFSLSTSGTCVSWIRQPPGKALEWLATICWEDSKGYNPSLKSRLTISKDTSKNQAVLTMTNMDPVDTATYYCARREDSGYFWFPYWGQGTLVTVSSASTKGPSVFPLAPSSKSTSGGTAALGCLVKDYFPEPVTVSWNSGALTSGVHTFPAVLQSSGLYSLSSVVTVPSSSLGTQTYICNVNHKPSNTKVDKKVEPKSCDKTHTCPPCPAPEAAGPSVFLFPPKPKDTLMISRTPEVTCVVVDVSHEDPEVKFNWYVDGVEVHNAKTKPREEQYNSTYRVVSVLTVLHQDWLNGKEYKCKVSNKALPAPIEKTISKAKGQPREPQVYTLPPSREEMTKNQVSLSCAVKGFYPSDIAVEWESNGQPENNYKTTPPVLDSDGSFFLVSKLTVDKSRWQQGNVFSCSVMHEALHNRFTQKSLSLSPGGGGGSGGGGSGGGGSGGGGSDIQMTQSPSSVSASVGDRVTITCRASQGIYSWLAWYQQKPGKAPNLLIYTASTLQSGVPSRFSGSGSGTDFTLTISSLQPEDFATYYCQQANIFPLTFGGGTKVEIK
light: B1 light
notes: PD-1/CD40: two PD-1 Fabs, terminal CD40 Fv (TM383)
As for B3, the binding result with PD-1 is “binds”.

B4: Ly2409 (bispecific antibody)
chain 1: QVTLKESGPALVKPTQTLTLTCTFSGFSLSTSGTCVSWIRQPPGKALEWLATICWEDSKGYNPSLKSRLTISKDTSKNQAVLTMTNMDPVDTATYYCARREDSGYFWFPYWGQGTLVTVSSASTKGPSVFPLAPSSKSTSGGTAALGCLVKDYFPEPVTVSWNSGALTSGVHTFPAVLQSSGLYSLSSVVTVPSSSLGTQTYICNVNHKPSNTKVDKKVEPKSCGGGGSGGGGSGGGGSGGGGSEVQLVESGGGLVQPGGSLRLSCAASGFTFTNYGLHWVRQAPGKGLEWVSSISPSGGVTYYRDSVKGRFTISRDNSKNTLYLQMNSLRAEDTAVYYCAKPFLGWGGANWIAHWGQGTLVTVSSGGGGSDKTHTCPPCPAPEAAGPSVFLFPPKPKDTLMISRTPEVTCVVVDVSHEDPEVKFNWYVDGVEVHNAKTKPREEQYNSTYRVVSVLTVLHQDWLNGKEYKCKVSNKALPAPIEKTISKAKGQPREPQVYTLPPSREEMTKNQVSLWCLVKGFYPSDIAVEWESNGQPENNYKTTPPVLDSDGSFFLYSKLTVDKSRWQQGNVFSCSVMHEALHNHYTQKSLSLSPG
chain 2: QVTLKESGPALVKPTQTLTLTCTFSGFSLSTSGTCVSWIRQPPGKALEWLATICWEDSKGYNPSLKSRLTISKDTSKNQAVLTMTNMDPVDTATYYCARREDSGYFWFPYWGQGTLVTVSSASTKGPSVFPLAPSSKSTSGGTAALGCLVKDYFPEPVTVSWNSGALTSGVHTFPAVLQSSGLYSLSSVVTVPSSSLGTQTYICNVNHKPSNTKVDKKVEPKSCGGGGSGGGGSGGGGSGGGGSDIQMTQSPSSLSASVGDRVTITCLASEDISNDLAWYQQKPGKAPKLLIYFVDRLLDGVPSRFSGSGSGTDFTLTISSLQPEDFATYYCQQSYKYPPTFGQGTKLEIKGGGGSDKTHTCPPCPAPEAAGPSVFLFPPKPKDTLMISRTPEVTCVVVDVSHEDPEVKFNWYVDGVEVHNAKTKPREEQYNSTYRVVSVLTVLHQDWLNGKEYKCKVSNKALPAPIEKTISKAKGQPREPQVYTLPPSREEMTKNQVSLSCAVKGFYPSDIAVEWESNGQPENNYKTTPPVLDSDGSFFLVSKLTVDKSRWQQGNVFSCSVMHEALHNRFTQKSLSLSPG
light: B1 light
notes: PD-1/CD40: two PD-1 Fabs, central CD40 Fv (TM559)
B4: the binding result in the experiment with PD-1 is given as “binds”.

B5: Ly2326 (bispecific antibody, human IgG1, kappa)
chain 1: QVQLQQSGAELVRPGSSVKISCKASGYAFSSYWMNWVKQRPGQGLEWIGQIWPGDGDTNYNGKFKGKATLTADESSSTAYMQLSSLASEDSAVYFCARRETTTVGRYYYAMDYWGQGTTVTVSSASTKGPSVFPLAPSSKSTSGGTAALGCLVKDYFPEPVTVSWNSGALTSGVHTFPAVLQSSGLYSLSSVVTVPSSSLGTQTYICNVNHKPSNTKVDKKVEPKSCDKTHTCPPCPAPEAAGPSVFLFPPKPKDTLMISRTPEVTCVVVDVSHEDPEVKFNWYVDGVEVHNAKTKPREEQYNSTYRVVSVLTVLHQDWLNGKEYKCKVSNKALPAPIEKTISKAKGQPREPQVYTLPPSREEMTKNQVSLWCLVKGFYPSDIAVEWESNGQPENNYKTTPPVLDSDGSFFLYSKLTVDKSRWQQGNVFSCSVMHEALHNHYTQKSLSLSPGGGGGSGGGGSGGGGSGGGGSQVQLVQSGAEVKKPGASVKVSCKASGYTFAGFEMHWVRQAPGQGLEWMGAIDPKTGGTDYNQKFKDRVTMTRDTSISTAYMELSRLRSDDTAVYYCARDLGYFDVWGQGTLVTVSS
chain 2: QVQLQQSGAELVRPGSSVKISCKASGYAFSSYWMNWVKQRPGQGLEWIGQIWPGDGDTNYNGKFKGKATLTADESSSTAYMQLSSLASEDSAVYFCARRETTTVGRYYYAMDYWGQGTTVTVSSASTKGPSVFPLAPSSKSTSGGTAALGCLVKDYFPEPVTVSWNSGALTSGVHTFPAVLQSSGLYSLSSVVTVPSSSLGTQTYICNVNHKPSNTKVDKKVEPKSCDKTHTCPPCPAPEAAGPSVFLFPPKPKDTLMISRTPEVTCVVVDVSHEDPEVKFNWYVDGVEVHNAKTKPREEQYNSTYRVVSVLTVLHQDWLNGKEYKCKVSNKALPAPIEKTISKAKGQPREPQVYTLPPSREEMTKNQVSLSCAVKGFYPSDIAVEWESNGQPENNYKTTPPVLDSDGSFFLVSKLTVDKSRWQQGNVFSCSVMHEALHNRFTQKSLSLSPGGGGGSGGGGSGGGGSGGGGSDIQMTQSPSSLSASVGDRVTITCRASQDIRSNLNWYQQKPGGAVKLLIYYTSRLHSGVPSRFSGSGSGTDYTLTISSLQPEDFATYFCQQSEKLPRTFGGGTKVEIR
light: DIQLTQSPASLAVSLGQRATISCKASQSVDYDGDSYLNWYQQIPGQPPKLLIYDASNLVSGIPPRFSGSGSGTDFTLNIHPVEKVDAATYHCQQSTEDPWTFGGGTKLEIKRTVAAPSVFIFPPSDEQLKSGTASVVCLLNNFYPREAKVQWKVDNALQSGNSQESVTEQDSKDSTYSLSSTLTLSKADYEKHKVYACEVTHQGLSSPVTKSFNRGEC
notes: CD19/CD137: two CD19 Fabs, terminal CD137 Fv
For the molecule B5, the binding result with CD137 is recorded as “binds”.
